Test [1] has as its target T1, SARS-CoV-2 S1 protein (SARS-CoV-2, UniProt P0DTC2 16-685).
T1 construct: also called SARS-CoV-2 Spike Glycoprotein S1; S1 (subunit 1)
In words: phage ELISA screen on S1, mean. In general terms: In an ELISA, binding on a coated surface is turned into a signal by an enzyme label.

In test [2] the target is T1, SARS-CoV-2 S1 protein. The experiment in a line: phage ELISA screen on S1, mean. The source holds these as a separate data set.
Test [3] concerns the target T2, human ACE2 (human, UniProt Q9BYF1 18-740).
For test [4], the target named is T2, human ACE2. The source holds these as a separate data set.
Test [5] concerns the target T1, SARS-CoV-2 S1 protein. In words: ELISA binding titration on coated antigen.
Test [6] concerns the target T3, SARS-CoV-2 Spike Glycoprotein S1 (SARS-CoV-2, UniProt P0DTC2 16-685).
T3 construct: also called S1 Monomer
In words: ELISA, plate coated with S1.

For test [7], the target named is T4, SARS-CoV-2 antigen of the epitope binning (SARS-CoV-2, UniProt P0DTC2 16-685).
T4 construct: also called S1
In words: epitope binning; competitor 2-2.

Test [8] concerns the target T4, SARS-CoV-2 antigen of the epitope …. The experiment in a line: epitope binning; competitor 2-5.
The target is the same in test [9]. The experiment in a line: epitope binning; competitor 2-6.
For test [10] the target is unchanged. The experiment in a line: epitope binning; competitor 2-8.
Test [11] shares this target. The experiment in a line: epitope binning; competitor 1-16.
The target is the same in test [12]. The experiment in a line: epitope binning; competitor 1-32.
Test [13] shares this target. The experiment in a line: epitope binning; competitor 1-35.
The target is the same in test [14]. The experiment in a line: epitope binning; competitor 2-11.
For test [15] the target is unchanged. The experiment in a line: epitope binning; competitor CR3022.
Test [16] shares this target. The experiment in a line: epitope binning; competitor Acro mAb.
The target in test [17] is S protein trimer (SARS-CoV-2, UniProt P0DTC2 14-1208). In words: ELISA, plate coated with S protein trimer.
The target of test [18] is T5, SARS-CoV-2 S protein RBD, SPD-C5259 (SARS-CoV-2, UniProt P0DTC2 319-537).
T5 construct: domain: RBD
The experiment in a line: FACS, inhibition of S protein RBD binding to Vero cells. On the technique in general: In flow cytometry, cells or beads pass a laser one at a time.

In test [19] the target is T1, SARS-CoV-2 S1 protein. In words: inhibitor ELISA, competitor ACE2.

Substitutions are numbered along the chain they refer to. Where “and” joins values, the source holds several entries; their conditions need not be identical. Equal values may be shown once. Read-outs that look alike come from different tables or passages of the source.

As usually defined, the IC50 is the point on the concentration scale where inhibition reaches its midpoint. A high value points to a need for much substance. What is called Kd is the equilibrium constant for the complex coming apart. As a reminder, the EC50 is the concentration giving half of the maximal effect. High values mean weaker potency, low ones greater potency.

T2 sequence (Q9BYF1 18-740 limits assumed): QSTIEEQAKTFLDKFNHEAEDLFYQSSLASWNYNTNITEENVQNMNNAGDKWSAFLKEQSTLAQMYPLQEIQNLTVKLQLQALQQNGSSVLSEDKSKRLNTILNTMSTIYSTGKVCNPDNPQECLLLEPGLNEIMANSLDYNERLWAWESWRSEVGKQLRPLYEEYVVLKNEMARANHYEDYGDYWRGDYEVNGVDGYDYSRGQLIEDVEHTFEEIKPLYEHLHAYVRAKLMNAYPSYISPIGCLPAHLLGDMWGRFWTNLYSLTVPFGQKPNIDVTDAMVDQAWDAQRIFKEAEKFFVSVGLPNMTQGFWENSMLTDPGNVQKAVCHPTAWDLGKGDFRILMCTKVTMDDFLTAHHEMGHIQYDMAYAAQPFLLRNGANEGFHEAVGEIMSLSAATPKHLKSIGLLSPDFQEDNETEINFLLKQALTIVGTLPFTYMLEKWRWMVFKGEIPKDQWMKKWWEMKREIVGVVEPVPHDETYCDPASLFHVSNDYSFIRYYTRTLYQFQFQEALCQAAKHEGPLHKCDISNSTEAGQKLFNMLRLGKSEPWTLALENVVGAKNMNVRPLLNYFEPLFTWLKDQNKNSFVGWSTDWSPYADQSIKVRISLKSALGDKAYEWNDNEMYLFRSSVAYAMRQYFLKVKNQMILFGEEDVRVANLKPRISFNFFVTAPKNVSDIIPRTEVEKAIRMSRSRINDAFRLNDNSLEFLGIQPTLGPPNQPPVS

B1: 2-18 (antibody, V domains shown)
VH: EVQLLESGGGLVQPGGSLRLSCAASGFTFSSYAMYWVRQAPGKGLEWVSAISGSAGSTYYADSVKGRFTISRDNSKNTLYLQMNSLRAEDTAVYYCARDTNDFWSGYSIFDPWGQGTLVTVSS
VL: DIQMTQSPSSLSASVGDRVTITCTGTSSDIGSYNLVSWYQQKPGKAPKLLIYEGTKRPSGVPSRFSGSGSGTDFTLTISSLQPEDFATYYCCSYAGSRTYVFGQGTKVEIK
notes: also called variant 2-18
Turning to B1, the “ELISA(Avg)” value in [1] and in test [2] was 43 fold over background each time.

B2: 4-140 (VHH)
VHH: EVQLVESGGGLVQPGGSLRLSCAASGRTFSNAAMGWFRQAPGKEREFVARITWNGGSTFYADSVKGRFTISADNSKNTAYLQMNSLKPEDTAVYYCATTENPNPRWGQGTLVTVSS
In test [3], B2 gave an IC50 of 3.07 nM. Also, the Kd in [4] turned out to be 8.9 nM.

B3: 4-54 (VHH)
VHH: EVQLVESGGGLVQPGGSLRLSCAASGRTFSDARMGWFRQAPGKEREFVGAVSWSGGTTVYADSVKGRFTISADNSKNTAYLQMNSLKPEDTAVYYCATTEDPYPRWGQGTLVTVSS
As to B3, the IC50 in test [3] turned out to be 2 nM. For the same molecule, binding in [4] was put at a Kd of 645 nM.

B4: 4-39 (VHH)
VHH: B2 VHH with T52L, N54T, G56A, T58R, F59N
In test [3], B4 showed an IC50 of 1.15 nM. This molecule showed a Kd in [4] of 17.5 nM.

B5: 4-101 (VHH)
VHH: B2 VHH with T52L, N54T, G56A, T58R, F59S
With B5, in test [3], the IC50 amounted to 0.568 nM. Further, the Kd in [4] was found to be 5.8 nM.

B6: 2-19 (antibody, V domains shown)
VH: EVQLLESGGGLVQPGGSLRLSCAASGFTFSSYTMSWVRQAPGKGLEWVSVISGSGGSTYYADSVKGRFTISRDNSKNTLYLQMNSLRAEDTAVYYCAREGYRDYLWYFDLWGQGTLVTVSS
VL: DIQMTQSPSSLSASVGDRVTITCTGTSTDVGSYNLVSWYQQKPGKAPKLLIYEGTKRPSGVPSRFSGSGSGTDFTLTISSLQPEDFATYYCCSYAGSYTSVVFGQGTKVEIK
notes: also called variant 2-19
With B6, the “ELISA(Avg)” value in [1] and in [2] was 21.7 fold over background in each case.

B7: 2-2 (second entry, printed after 2-19) (antibody, V domains shown)
VH: EVQLLESGGGLVQPGGSLRLSCAASGFTFSSYDMSWVRQAPGKGLEWVSVISGSGGSTYYADSVKGRFTISRDNSKNTLYLQMNSLRAEDTAVYYCAKGPLVGWYFDLWGQGTLVTVSS
VL: B6 VL with T28S, D29N, Y98S, T99S, S100F
As for B7, the “ELISA(Avg)” value in [1] and in [2] was 12.8 fold over background in each case. The molecule also gave an EC50 in test [5] of 100 nM.

B8: 2-2 (antibody, V domains shown)
VH: EVQLLESGGGLVQPGGSLRLSCAASGFTFSRHAMNWVRQAPGKGLEWVSGISGSGDETYYADSVKGRFTISRDNSKNTLYLQMNSLRAEDTAVYYCARDLPASYYDSSGYYWHNGMDVWGQGTLVTVSS
VL: DIQMTQSPSSLSASVGDRVTITCRASQTINTYLNWYQQKPGKAPKLLIYSASTLQSGVPSRFSGSGSGTDFTLTISSLQPEDFATYYCQQSYSTFTFGQGTKVEIK
Regarding B8, the “S1 Monomer” value in [6] stood at 0.13 nM. Moreover, the epitope binning score in test [7] was found to be 0; in test [8], 0; in [9] it was 2; in [10], 0; in test [11], 0; in test [12], 2. Also, the epitope binning score was 1 in [13], 0 in [14], 0 in [15] and 0 in test [16]. For the same molecule, in test [17], the “S Trimer” value amounted to 0.64 nM. The same molecule yielded an IC50 in test [18] of 3 nM.

B9: 4-17 (VHH)
VHH: EVQLVESGGGLVQPGGSLRLSCAASGQLANFASYAMGWFRQAPGKEREFVAAITRSGSSTVYADSVKGRFTISADNSKNTAYLQMNSLKPEDTAVYYCATTMNPNPRWGQGTLVTVSS
In test [3], B9 registered an IC50 of 0.721 nM. The Kd in [4] is 18.8 nM and 30.6 nM.

B10: 2-17 (antibody, V domains shown)
VH: EVQLLESGGGLVQPGGSLRLSCAASGFTFSNYAMSWVRQAPGKGLEWVSAISGSAGSTYYADSVKGRFTISRDNSKNTLYLQMNSLRAEDTAVYYCARVRQGLRRTWYYFDYWGQGTLVTVSS
VL: DIQMTQSPSSLSASVGDRVTITCTGTSSDVGSSNLVSWYQQKPGKAPKLLIYEGSKRPSGVPSRFSGSGSGTDFTLTISSLQPEDFATYYCCSYAGSLYVFGQGTKVEIK
notes: also called variant 2-17
For the molecule B10, the “ELISA(Avg)” value in [1] and in [2] was 3.5 fold over background throughout. This molecule also yielded a concentration for a half-maximal effect (EC50) in [5] of 100 nM.

B11: 2-12 (antibody, V domains shown)
VH: EVQLLESGGGLVQPGGSLRLSCAASGFTFSDYPMNWVRQAPGKGLEWVSTISGSGGITFYADSVKGRFTISRDNSKNTLYLQMNSLRAEDTAVYYCVRHDEYSFDYWGQGTLVTVSS
VL: DIQMTQSPSSLSASVGDRVTITCRASQSIDNYLNWYQQKPGKAPKLLIYGVSALQSGVPSRFSGSGSGTDFTLTISSLQPEDFATYYCQQSHSAPPYFFGQGTKVEIK
notes: also called variant 2-12
Regarding B11, the “ELISA(Avg)” value in test [2] was 18.2 fold over background. This molecule came in with an IC50 in [19] of 1 nM.

B12: 2-4 (antibody, V domains shown)
VH: EVQLLESGGGLVQPGGSLRLSCAASGFTFSDFAMAWVRQAPGKGLEWVSAISGSGDITYYADSVKGRFTISRDNSKNTLYLQMNSLRAEDTAVYYCAREADGLHSPWHFDLWGQGTLVTVSS
VL: B11 VL with N31T, G50A, V51A, Q55A, H92Y, F98T
As to B12, the “S1 Monomer” value in test [6] came out at 1.58 nM. Further, in [17], the “S Trimer” value amounted to 10.2 nM. Further, the IC50 in test [18] was 46.3 nM.

B13: 2-8 (antibody, V domains shown)
VH: B12 VH
VL: B11 VL with N31T, G50A, V51A, Q55A, H92Y, F98T
Take B13: the “S1 Monomer” value in [6] is 1.52 nM. Further, the epitope binning score amounted to 0 in test [7]; 0 in test [8]; 1 in [9]; 0 in [10]; 1 in test [11]; 1 in [12]. Besides, the epitope binning score in test [13] came to 1; in test [14], 1; in test [15], 0; in test [16], 1. In addition, in test [17], the “S Trimer” value worked out at 7.08 nM. The same molecule gave an IC50 in [18] of 19.5 nM.

B14: 2-13 (antibody, V domains shown)
VH: B11 VH with T50A, G56D, I57N, F59Y
VL: B11 VL with N31T, V51A, Q55E
notes: also called variant 2-13
Regarding B14, the “ELISA(Avg)” value in [2] came to 19.1 fold over background. The molecule further came in with an IC50 in test [19] of 45 nM.

B15: 2-5 (antibody, V domains shown)
VH: B12 VH
VL: B11 VL with D30H, N31T, G50A, V51A, Q55A, H92Y, F98T
Take B15: in [6], the “S1 Monomer” value is 0.17 nM. For the same molecule, the epitope binning score came out at 0 in [7]; 0 in test [8]; 1 in test [9]; 0 in test [10]; 1 in [11]; 1 in test [12]. Besides, the epitope binning score stood at 1 in test [13], 1 in test [14], 0 in [15] and 1 in test [16]. Moreover, in [17], the “S Trimer” value came out at 0.59 nM. In test [18], this molecule displayed an IC50 of 4.4 nM.
